Our source for the Km, kcat and kcat/Km values is publication PMC9555226, “Microreactor equipped with naturally acid-resistant histidine ammonia lyase from an extremophile” (Materials advances, 2022).

Substrate in this data set: N[C@@H](Cc1c[nH]cn1)C(=O)O
The data set can be described thus: purified protein. The format is biochemical, Thermoplasma acidophilum. To be noted: 37 °C, pH 7.4, buffer A, free enzyme.

B1: TaHAL (Thermoplasma acidophilum histidine ammonia lyase) (Thermoplasma acidophilum DSM 1728) (protein)
chain: MIEIDGRSLRVEDVYAVAVEYDRVSISDDTLKAVEEKHEAFLKLINSGKTVYGVNTGFGSLLNVHIERDQEIELQKNLIRSHSSGVGDYLENRYVRAIMAVRLNSLAAGYSAVSADLLNMMVEMLNRDVIPAVPKYGSVGASGDLAPLAHIGLAMMGEGKAFFEGRLMDSARALEKAGLKPYQFKEKEGVALINGTSFMSGILSIAVMDAHDILENAIRSALLSFEALGGTSKAFTPWILGARPHLGQVAIGNRFREYLTGSDIVKRADSVKVQDAYTLRCIPQVYGSVADVIDYVENVLSVEINSATDNPLFNGEEVVSGGNFHGEPVALAADFLAIALTDLGNMVERRIARLVDTNLSGLPPFLTPDSGLNSGYMIPQYTAAALCNRNKVLAYPSSADTIPTSANQEDHVSMGATGSLKLLEIIDNVRYIIAIEYLLGSQALEFTDKGMSPSTRKIYEKIREKVEKLDHDRPPSFDIETIRKMMDKKEFISALP
notes: E. coli BL21(DE3), codon-optimized gene, pET28a; N-terminal His-SUMO tag cleaved with ULP1; ~55 kDa; homotetramer with MIO
Turning to B1, the Km worked out at 45 ± 20 µM, the kcat stood at 1.01 ± 0.08 s⁻¹ and the catalytic efficiency (kcat/Km) was determined as 22400 ± 4000 M⁻¹ s⁻¹.

In general, Km refers to the substrate concentration at which the rate is half of its maximum. By kcat is commonly meant the number of substrate molecules converted per active site and unit of time at saturation. Broadly, the kcat/Km is the turnover number divided by the Michaelis constant.
